Positions count from the first letter of the chain named.
B1: CD40L-233 (antibody, V domains shown)
VH: EVQLLESGGGLVQPGGSLRLSCAASGFTFEDYQMGWVRQAPGKGLEWVSSITSEGGSTYYADSVKGRFTISRDNSKNTLYLQMNSLRAEDTAVYYCAKPDKDFDYWGQGTLVTVSS
VL: DIQMTQSPSSLSASVGDRVTITCRASQFIGRYFNWYQQKPGKAPKLLIYGATILADGVPSRFSGSGSGTDFTLTISSLQPEDFATYYCQQNNNWPTTFGQGTKVEIK
B2: CD40L-239 (antibody, V domains shown)
VH: EVQLLESGGGLVQPGGSLRLSCAASGFIFQWYDMGWVRQAPGKGLEWVSSINDRGDQTYYADSVKGRFTISRDNSKNTLYLQMNSLRAEDTAVYYCARVAFSGSFDYWGQGTLVTVSS
VL: DIQMTQSPSSLSASVGDRVTITCRASQSILSYLNWYQQKPGKAPKLLIYFTSTLAAGVPSRFSGSGSGTDFTLTISSLQPEDFATYYCQQSYSSAPTFGQGTKVEIK
B3: CD40L-341 (antibody, V domains shown)
VH: EVQLLESGGGLVQPGGSLRLSCAASGFTFRSYAMTWVRQAPGKGLEWVSAISGSGDRTYYGDSVKGRFTISRDNSKNTLYLQMNSLRAEDTAVYYCARIARSEDFWSGYYTDFDFDYWGQGTLVTVSS
VL: B2 VL with L30S, S31T, F50R, T51A, A55Q, A56S, S94N, A95P
B4: CD40L-342 (antibody, V domains shown)
VH: EVQLLESGGGLVQPGGSLRLSCAASGFTFSKYAMNWVRQAPGKGLEWVSAISGSGESTYYADSVKGRFTISRDNSKNTLYLQMNSLRAEDTAVYYCARAHDYDSMLMDYWGQGTLVTVSS
VL: B2 VL with L30S, S31R, F50A, T51E, A55Q, A56S, S93T, S94I, A95P, P96L
B5: CD40L-330 (antibody, V domains shown)
VH: B4 VH
VL: B2 VL with S28T, L30G, F50S, T51A, A55Q, A56T, S94P, A95P, P96L, Q100G
B6: CD40L-378 (antibody, V domains shown)
VH: B3 VH
VL: B2 VL with L30S, S31T, F50R, T51A, A55Q, A56S, S94N, A95P, Q100G
B7: CD40L-344 (antibody, V domains shown)
VH: B4 VH
VL: DIQMTQSPSSLSASVGDRVTITCRASESITTYLNWYQQKPGKAPKLLIYTASGLQSGVPSRFSGSGSGTDFTLTISSLQPEDFATYYCQQSYTVPITFGQGTKVEIK
B8: CD40L-343 (antibody, V domains shown)
VH: B4 VH
VL: DIQMTQSPSSLSASVGDRVTITCRASQYINNYLNWYQQKPGKAPKLLIYASSTLQRGVPSRFSGSGSGTDFTLTISSLQPEDFATYYCQQSFSTPITFGQGTKVEIK
B9: CD40L-220 (antibody, V domains shown)
VH: EVQLLESGGGLVQPGGSLRLSCAASGGYNFRDYMHWVRQAPGKGLEWVSSITSEGGSTYYADSVKGRFTISRDNSKNTLYLQMNSLRAEDTAVYYCAKDLGQGFDYWGQGTLVTVSS
VL: DIQMTQSPSSLSASVGDRVTITCRTSQDIGNYLNWYQQKPGKAPKLLIYGTSYRYSGVPSRFSGSGSGTDFTLTISSLQPEDFATYYCQPSFVFPYTFGQGTKVEIK
B10: CD40L-241 (antibody, V domains shown)
VH: B9 VH with T52S, S53D, E54H, G56F, S57N, D99N
VL: DIQMTQSPSSLSASVGDRVTITCRTSQDISNYLNWYQQKPGKAPKLLIYAASNVESGVPSRFSGSGSGTDFTLTISSLQPEDFATYYCASRNGWNHVVFGQGTKVEIK
B11: CD40L-266 (antibody, V domains shown)
VH: EVQLLESGGGLVQPGGSLRLSCAASGGYNFRDYMHWVRQAPGKGLEWVGKINYAGNTDYNDSVKGRFTISRDNSKNTLYLQMNSLRAEDTAVYYCAKNLGQGFDYWGQGTLVTVSS
VL: DIQMTQSPSSLSASVGDRVTITCRASQNIRSYLNWYQQKPGKAPKLLIYSASVLQSGVPSRFSGSGSGTDFTLTISSLQPEDFATYYCKSRAYSGNLVEFGQGTKVEIK
B12: CD40L-338 (antibody, V domains shown)
VH: EVQLLESGGGLVQPGGSLRLSCAASGFTFGSFAMNWVRQAPGKGLEWVSAITGGGGSTYYADSVKGRFTISRDNSKNTLYLQMNSLRAEDTAVYYCAHGLAWRWGFDYWGQGTLVTVSS
VL: DIQMTQSPSSLSASVGDRVTITCRASQNIDRYLNWYQQKPGKAPKLLIYAASALQSGVPSRFSGSGSGTDFTLTISSLQPEDFATYYCQQSYSILPVTFGQGTKVEIK
B13: CD40L-379 (antibody, V domains shown)
VH: B12 VH
VL: B12 VL with Q101G
B14: CD40L-319 (antibody, V domains shown)
VH: EVQLLESGGGLVQPGGSLRLSCAASGFTFGHYAMGWVRQAPGKGLEWVSAISGSGAGTYYADSVKGRFTISRDNSKNTLYLQMNSLRAEDTAVYYCATHDSPYYYIDVWGQGTLVTVSS
VL: B7 VL with E27Q, T30Y, G53A, S56T, T93R, V94I, I96L, Q100G
B15: CD40L-350 (antibody, V domains shown)
VH: EVQLLESGGGLVQPGGSLRLSCAASGLTFGSYAMSWVRQAPGKGLEWVSAISGSVGSTYYADSVKGRFTISRDNSKNTLYLQMNSLRAEDTAVYYCARHGGYYYYYMDVWGQGTLVTVSS
VL: DIQMTQSPSSLSASVGDRVTITCRASQSISSYVSWYQQKPGKAPKLLIYDASSLSGGVPSRFSGSGSGTDFTLTISSLQPEDFATYYCQQSYRIPLTFGGGTKVEIK
B16: CD40L-349 (antibody, V domains shown)
VH: EVQLLESGGGLVQPGGSLRLSCAASGFGFSSYAMSWVRQAPGKGLEWVSAISGGGGSIYYADSVKGRFTISRDNSKNTLYLQMNSLRAEDTAVYYCATDYGDYDRLNFDLWGQGTLVTVSS
VL: B8 VL with Y28T, N30G, N31S, S51A, R56P, F92Y, S93E, I96L, Q100G
B17: CD40L-321 (antibody, V domains shown)
VH: EVQLLESGGGLVQPGGSLRLSCAASGFSFRSYAMSWVRQAPGKGLEWVSIISGSGGSTSYADSVKGRFTISRDNSKNTLYLQMNSLRAEDTAVYYCARYYFGLSSNWFNPWGQGTLVTVSS
VL: DIQMTQSPSSLSAYVGDRVTITCRASQSIGIHLNWYQQKPGKAPKLLIYGASRLQTGVPSRFSGSGSGTDFTLTISSLQPEDFATYYCQQSYSAPLTFGGGTKVEIK
B18: CD40L-348 (antibody, V domains shown)
VH: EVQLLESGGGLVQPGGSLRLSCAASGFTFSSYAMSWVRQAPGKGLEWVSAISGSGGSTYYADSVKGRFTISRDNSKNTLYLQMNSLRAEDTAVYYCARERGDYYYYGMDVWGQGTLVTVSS
VL: DIQMTQSPSSLSASVGDRVTITCRASQTISNFLNWYQQKPGKAPKLLIYAASTLQYGVPSRFSGSGSGTDFTLTISSLQPEDFATYYCQQNYRSPLTFGGGTKVEIK
B19: CD40L-340 (antibody, V domains shown)
VH: B16 VH
VL: B18 VL with T28S, I29V, N31R, Y56P, N91S, R93E, S94T, G100Q
B20: CD40L-437 (antibody, V domains shown)
VH: EVQLLESGGGLVQPGGSLRLSCAASGFSFSSYAMAWVRQAPGKGLEWVSSISGSGGGGNTYYADSVKGRFTISRDNSKNTLYLQMNSLRAEDTAVYYCARHHERDYYGMDVWGQGTLVTVSS
VL: B18 VL with N91T, R93S, S94F
B21: CD40L-347 (antibody, V domains shown)
VH: B4 VH with K31N, N35S, S52T, E56S, S57T
VL: B18 VL with T28S, S30G, N31T, A50G, A51T, T53N, Y56S, N91G, S94T
B22: CD40L-339 (antibody, V domains shown)
VH: B4 VH with K31N, N35S, S52T, E56S, S57T
VL: B7 VL with E27Q, T30G, Y32F, T50G, A51T, G53N, S91G, T93R, V94T, I96L
B23: CD40L-429 (antibody, V domains shown)
VH: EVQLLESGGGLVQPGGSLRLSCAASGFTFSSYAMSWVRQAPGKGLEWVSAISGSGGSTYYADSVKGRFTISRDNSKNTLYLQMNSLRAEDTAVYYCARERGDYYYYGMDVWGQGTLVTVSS
VL: B18 VL with N31Y, F32Y, A50D, S52T, T53S, Y56S, N91T, R93S, S94L
B24: CD40L-396 (antibody, V domains shown)
VH: B20 VH
VL: B18 VL with T28R, N31R, F32Y, A50R, Y56S, N91S, Y92H, R93S
B25: CD40L-386 (antibody, V domains shown)
VH: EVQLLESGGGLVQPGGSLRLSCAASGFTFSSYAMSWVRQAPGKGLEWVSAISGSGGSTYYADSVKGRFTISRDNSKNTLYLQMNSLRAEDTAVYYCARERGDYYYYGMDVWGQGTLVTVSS
VL: B7 VL with Q100G
B26: CD40L-354 (antibody, V domains shown)
VH: B20 VH
VL: B17 VL with Y14S, I31E, H32Y, G50S, R53S, T56N, S91T, A94F
B27: CD40L-345 (antibody, V domains shown)
VH: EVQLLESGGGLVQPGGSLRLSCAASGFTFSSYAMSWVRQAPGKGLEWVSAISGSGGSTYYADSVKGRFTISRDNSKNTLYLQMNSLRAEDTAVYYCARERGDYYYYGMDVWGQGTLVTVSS
VL: B18 VL with G100Q
B28: CD40L-250 (antibody, V domains shown)
VH: EVQLLESGGGLVQPGGSLRLSCAASGFIFQWYDMGWVRQAPGKGLEWVSSIDWRGLLTYYADSVKGRFTISRDNSKNTLYLQMNSLRAEDTAVYYCAKAYYGGFDYWGQGTLVTVSS
VL: not shown

These binders were tested against T1, CD40L (UniProt P29965 1-261, limits assumed) (assay: flow cytometry, 100 nM IgG, CD40L over-expressing Expi293 cells over parent Expi293 cells).
T1 construct: whole, on cells; also called cytokine over-expressing Expi293 cells (CD40L)
T1 sequence (looked up): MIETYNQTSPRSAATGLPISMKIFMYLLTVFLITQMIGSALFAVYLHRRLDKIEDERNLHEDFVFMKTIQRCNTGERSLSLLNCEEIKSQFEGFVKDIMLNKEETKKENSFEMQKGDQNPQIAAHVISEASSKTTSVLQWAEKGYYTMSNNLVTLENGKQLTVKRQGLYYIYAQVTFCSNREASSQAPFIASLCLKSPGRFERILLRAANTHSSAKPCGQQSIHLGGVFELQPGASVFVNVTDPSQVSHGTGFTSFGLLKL
Protocol: All incubations and washes were in buffer containing PBS+1% BSA. MFI Ratio is defined by the mean fluorescence intensity (MFI) of the cytokine over-expressing Expi293 cell over the Expi293 parent cell. […] EC50 was calculated in GraphPad Prism.

Binder | 100 nM FACS (MFI Ratio)
B1 | 1.8 MFI ratio
B2 | 4.2 MFI ratio
B3 | 125 MFI ratio
B4 | 124 MFI ratio
B5 | 27.1 MFI ratio
B6 | 8.1 MFI ratio
B7 | 4.9 MFI ratio
B8 | 35.8 MFI ratio
B9 | 4.3 MFI ratio
B10 | 1.7 MFI ratio
B11 | 1.7 MFI ratio
B12 | 34.3 MFI ratio
B13 | 71.2 MFI ratio
B14 | 4.2 MFI ratio
B15 | 66.4 MFI ratio
B16 | 5.8 MFI ratio
B17 | 1.7 MFI ratio
B18 | 6.2 MFI ratio
B19 | 61.5 MFI ratio
B20 | 4.3 MFI ratio
B21 | 11.6 MFI ratio
B22 | 56.6 MFI ratio
B23 | 5 MFI ratio
B24 | 6.2 MFI ratio
B25 | 1.6 MFI ratio
B26 | 6.9 MFI ratio
B27 | 7.7 MFI ratio
B28 | 27.1 MFI ratio

Reference: US20230265179A1 (TWIST BIOSCIENCE, published 2023)
